Paper PMC4822050, “Hemi-methylated DNA opens a closed conformation of UHRF1 to facilitate its histone recognition” (Nature Communications, 2016)

T1: UHRF1^Δ627–674 (human, UniProt Q96T88 1-793, Δ627–674)
T1 construct: also called spacer deletion mutant
T1 sequence (looked up): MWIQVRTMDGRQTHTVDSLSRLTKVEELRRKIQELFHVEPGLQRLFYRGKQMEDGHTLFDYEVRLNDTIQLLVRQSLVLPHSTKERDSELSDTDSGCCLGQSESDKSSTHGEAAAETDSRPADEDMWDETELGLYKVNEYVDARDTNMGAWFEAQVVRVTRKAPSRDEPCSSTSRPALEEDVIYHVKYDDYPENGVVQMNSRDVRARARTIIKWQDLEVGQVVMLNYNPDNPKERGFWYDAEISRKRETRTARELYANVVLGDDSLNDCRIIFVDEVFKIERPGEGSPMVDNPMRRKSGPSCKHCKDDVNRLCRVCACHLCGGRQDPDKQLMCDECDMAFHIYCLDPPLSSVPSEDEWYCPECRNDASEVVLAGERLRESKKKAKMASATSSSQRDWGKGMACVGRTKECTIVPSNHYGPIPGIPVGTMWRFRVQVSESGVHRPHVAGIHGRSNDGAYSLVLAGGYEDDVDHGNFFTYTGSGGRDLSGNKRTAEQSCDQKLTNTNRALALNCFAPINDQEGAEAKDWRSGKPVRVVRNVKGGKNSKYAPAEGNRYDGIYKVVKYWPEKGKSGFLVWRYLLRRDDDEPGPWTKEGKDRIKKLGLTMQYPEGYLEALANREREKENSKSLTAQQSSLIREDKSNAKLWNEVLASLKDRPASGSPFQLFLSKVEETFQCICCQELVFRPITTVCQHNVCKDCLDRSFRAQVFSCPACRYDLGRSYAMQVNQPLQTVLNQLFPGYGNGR

T2: full-length UHRF1 (residues 1–793) (human, UniProt Q96T88 1-793)
T2 construct: human UHRF1, residues 1–793; monomer by gel filtration; also called wild-type UHRF1; ICBP90
T2 sequence (looked up): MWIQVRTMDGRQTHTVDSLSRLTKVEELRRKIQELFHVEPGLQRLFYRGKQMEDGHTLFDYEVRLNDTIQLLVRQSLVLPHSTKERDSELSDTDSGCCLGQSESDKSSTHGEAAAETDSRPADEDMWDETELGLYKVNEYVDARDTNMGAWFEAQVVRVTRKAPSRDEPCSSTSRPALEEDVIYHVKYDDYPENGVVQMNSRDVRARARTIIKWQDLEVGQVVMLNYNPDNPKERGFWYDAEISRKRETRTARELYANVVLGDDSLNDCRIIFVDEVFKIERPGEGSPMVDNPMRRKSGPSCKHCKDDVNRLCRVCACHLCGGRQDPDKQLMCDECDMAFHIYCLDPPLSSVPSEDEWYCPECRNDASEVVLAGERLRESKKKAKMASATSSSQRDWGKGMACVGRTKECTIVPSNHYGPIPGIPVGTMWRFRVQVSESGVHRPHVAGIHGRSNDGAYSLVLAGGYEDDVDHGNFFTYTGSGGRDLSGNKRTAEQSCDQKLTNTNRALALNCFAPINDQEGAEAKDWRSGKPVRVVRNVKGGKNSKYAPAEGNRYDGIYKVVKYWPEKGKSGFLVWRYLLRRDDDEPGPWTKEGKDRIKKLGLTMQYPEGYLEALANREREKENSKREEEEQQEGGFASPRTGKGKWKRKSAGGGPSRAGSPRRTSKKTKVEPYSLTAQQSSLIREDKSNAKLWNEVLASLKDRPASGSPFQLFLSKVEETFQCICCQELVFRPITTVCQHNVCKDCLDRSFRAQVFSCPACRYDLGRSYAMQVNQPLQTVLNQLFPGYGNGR

T3: PHD of UHRF1 (residues 307–366) (human, UniProt Q96T88 307-366)
T3 construct: human UHRF1, PHD, residues 307–366; also called plant homeodomain; the isolated PHD
T3 sequence (looked up): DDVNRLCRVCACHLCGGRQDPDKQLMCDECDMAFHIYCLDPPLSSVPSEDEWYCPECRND


How the values were obtained:
Settings in all cases: both partners purified
[1] = molecular target: T1, UHRF1^Δ627–674; test: pull-down; GST pull-down: 15 μg GST-tagged protein with 40 μg recombinant protein in 500 μl 20 mM HEPES-NaOH pH 8.0, 100 mM NaCl, 5% glycerol, 0.1% Triton X-100, 4 °C, glutathione resin, Coomassie staining; some panels with increasing hm-DNA
[2] = molecular target: T2, full-length UHRF1 (residues 1–793); test: ITC; 0.05 mM protein in the cell, 0.5 mM protein or peptide in the syringe, iTC200, 18 °C, 10 mM HEPES pH 8.0, 100 mM NaCl
[3] = molecular target: T3, PHD of UHRF1 (residues 307–366); test: as above

Row | Binder | binding result [1] | Kd [2] | fold higher binding affinity than with full-length UHRF1 [3]
1 | GST-tagged Spacer of UHRF1 (domain or fragment, human, UniProt Q96T88 587-674, looked up, also called GST-Spacer) PGPWTKEGKDRIKKLGLTMQYPEGYLEALANREREKENSKREEEEQQEGGFASPRTGKGKWKRKSAGGGPSRAGSPRRTSKKTKVEPY | binds | – | –
2 | ARTKQTARKSTGGKAPR (peptide, UniProt P68431 2-18, looked up, histone H3, residues 1–17; also called H3K9me0; unmethylated histone H3) [H3 peptide (1–17)] | – | 26 µM | ~34 fold
